B1: Nogo-A-Δ20 (residues 544–725 of the rat Nogo-A sequence) (domain or fragment, UniProt Q9JK11-1 544-725, looked up)
chain: TGTKIAYETKVDLVQTSEAIQESLYPTAQLCPSFEEAEATPSPVLPDIVMEAPLNSLLPSAGASVVQPSVSPLEAPPPVSYDSIKLEPENPPPYEEAMNVALKALGTKEGIKEPESFNAAVQETEAPYISIACDLIKETKLSTEPSPDFSNYSEIAKFEKSVPEHAELVEDSSPESEPVDLF
notes: Nogo-A (reticulon 4-A), rat, 1163 residues; Nogo-A-Δ20 region, residues 544-725 (182 residues), numbered as in the rat Nogo-A protein; the T7-tag lies between the N-terminal His6-tag and Nogo-A-Δ20; The N-terminal His6-tag was removed with thrombin; also called 15N-labelled Nogo-A-Δ20; [13C, 15N]-Nogo-A-Δ20; not shown: His6, N-terminal, cleaved; T7-tag, N-terminal, kept; His6, C-terminal, kept

Columns and labels:
[1] = molecular target: S1PR2 ECL2 peptide ECL2 (Homo sapiens) (UniProt O95136); assay: MST; conditions: cited from earlier work
[2] = molecular target: S1PR2 ECL3 peptide ECL3 (Homo sapiens) (UniProt O95136); assay: MST; conditions: cited from earlier work
[3] = molecular target: the molecule itself; assay: pulsed field gradient NMR diffusion; Nogo-A-Δ20 at 30 μM or 560 μM, without or with TCEP (5 mM or 2 mM), pH 7.4, 6°C; diffusion coefficients compared

Molecule	Kd [1] [nM]	Kd [2] [nM]	binding result [3]
Nogo-A-Δ20 Δ20 (from UniProt Q9JK11)	280	350	
B1			binds

Source: PMC5017703, “The Neurite Outgrowth Inhibitory Nogo-A-Δ20 Region Is an Intrinsically Disordered Segment Harbouring Three Stretches with Helical Propensity” (PLoS ONE, 2016)
